Laboratory results reported in patent publication US20020111475A1 (IMMUNEX, published 2002).

T1: human flt3 on BAF/hflt3 cells (BAF-BO3 cells transfected with human flt3 cDNA) (human, UniProt P36888 27-993)
T1 sequence (looked up): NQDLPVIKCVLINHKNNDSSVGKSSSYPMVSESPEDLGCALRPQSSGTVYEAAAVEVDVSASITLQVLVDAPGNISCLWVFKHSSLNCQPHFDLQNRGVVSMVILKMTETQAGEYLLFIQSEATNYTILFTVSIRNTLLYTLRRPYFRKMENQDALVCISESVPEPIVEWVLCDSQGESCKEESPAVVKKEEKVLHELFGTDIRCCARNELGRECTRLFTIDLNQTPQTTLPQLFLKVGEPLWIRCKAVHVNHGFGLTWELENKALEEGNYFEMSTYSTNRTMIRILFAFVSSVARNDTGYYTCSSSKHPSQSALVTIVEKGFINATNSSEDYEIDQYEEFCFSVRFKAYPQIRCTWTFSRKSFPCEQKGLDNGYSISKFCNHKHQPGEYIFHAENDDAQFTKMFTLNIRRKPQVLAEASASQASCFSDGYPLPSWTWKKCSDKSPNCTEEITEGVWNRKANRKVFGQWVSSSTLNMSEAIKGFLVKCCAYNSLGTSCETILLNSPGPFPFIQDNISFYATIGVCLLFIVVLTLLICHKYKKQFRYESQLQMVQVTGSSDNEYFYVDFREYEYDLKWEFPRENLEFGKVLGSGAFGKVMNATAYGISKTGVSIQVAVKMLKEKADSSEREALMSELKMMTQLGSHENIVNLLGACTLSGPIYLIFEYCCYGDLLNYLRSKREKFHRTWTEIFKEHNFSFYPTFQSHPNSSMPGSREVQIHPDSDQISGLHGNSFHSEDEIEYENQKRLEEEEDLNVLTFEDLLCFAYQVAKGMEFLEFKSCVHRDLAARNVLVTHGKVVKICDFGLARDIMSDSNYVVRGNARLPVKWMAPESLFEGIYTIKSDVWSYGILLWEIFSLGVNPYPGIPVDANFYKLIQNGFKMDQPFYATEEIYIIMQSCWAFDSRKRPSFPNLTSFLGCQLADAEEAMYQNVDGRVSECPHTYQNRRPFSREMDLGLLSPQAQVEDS

T2: flt3 on murine WWF7 cells
T2 sequence (Q00342 whole entry, looked up): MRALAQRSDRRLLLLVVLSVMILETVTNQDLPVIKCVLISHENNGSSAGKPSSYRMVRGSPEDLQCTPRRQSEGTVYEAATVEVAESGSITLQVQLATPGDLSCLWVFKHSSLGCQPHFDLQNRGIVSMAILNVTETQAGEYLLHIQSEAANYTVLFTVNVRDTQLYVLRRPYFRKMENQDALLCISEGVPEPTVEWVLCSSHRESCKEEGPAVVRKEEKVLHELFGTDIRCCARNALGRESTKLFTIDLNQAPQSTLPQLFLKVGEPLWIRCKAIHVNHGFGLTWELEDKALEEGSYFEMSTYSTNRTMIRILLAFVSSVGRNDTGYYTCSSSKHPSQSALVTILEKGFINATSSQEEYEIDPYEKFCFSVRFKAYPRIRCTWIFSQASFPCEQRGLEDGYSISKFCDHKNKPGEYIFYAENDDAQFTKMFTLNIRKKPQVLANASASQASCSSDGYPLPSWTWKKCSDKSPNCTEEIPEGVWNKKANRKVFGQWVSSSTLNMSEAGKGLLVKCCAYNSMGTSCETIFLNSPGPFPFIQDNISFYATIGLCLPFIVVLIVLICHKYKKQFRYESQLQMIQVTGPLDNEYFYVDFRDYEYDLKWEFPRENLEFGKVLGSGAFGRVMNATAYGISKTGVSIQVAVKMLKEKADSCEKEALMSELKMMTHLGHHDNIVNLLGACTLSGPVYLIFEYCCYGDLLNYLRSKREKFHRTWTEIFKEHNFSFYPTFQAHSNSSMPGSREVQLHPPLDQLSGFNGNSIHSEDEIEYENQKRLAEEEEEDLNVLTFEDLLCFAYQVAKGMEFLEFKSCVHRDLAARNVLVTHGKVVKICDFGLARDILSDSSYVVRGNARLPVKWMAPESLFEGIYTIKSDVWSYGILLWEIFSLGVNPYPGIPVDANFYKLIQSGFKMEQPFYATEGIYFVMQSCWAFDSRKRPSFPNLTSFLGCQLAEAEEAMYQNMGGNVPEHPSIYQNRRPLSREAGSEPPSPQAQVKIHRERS

B1: wild type flt3-L (yeast-derived recombinant human flt3 Ligand) (ligand)
chain: LSGTQDCSFQHSPISSDFAVKIRELSDYLLQDYPVTVASNLQDEELCGGLWRLVLAQRWMERLKTVAGSKMQGLLERVNTEIHFVTKCAFQPPPSCLRFVQTNISRLLQETSEQLVALKPWITRQNFARCLELQCQPDSSTLPPPWSPRPLEATAP
notes: Secreted from yeast (alpha-factor leader, final plasmid PIXY797); Leu-Ser-Gly stands before Thr1 of the mature protein (80% of chains; 20% begin at Ser); Noncovalent dimer (dimer peak collected); also called WT; 125I-flt3-L (radiolabelled form)
B2: flt3-L multiple mutant K84E/Q122R (ligand)
chain: LSGTQDCSFQHSPISSDFAVKIRELSDYLLQDYPVTVASNLQDEELCGGLWRLVLAQRWMERLKTVAGSKMQGLLERVNTEIHFVTECAFQPPPSCLRFVQTNISRLLQETSEQLVALKPWITRRNFARCLELQCQPDSSTLPPPWSPRPLEATAP
notes: also called double mutant K84E/Q122R
B3: flt3-L mutant H8Y (ligand)
chain: LSGTQDCSFQYSPISSDFAVKIRELSDYLLQDYPVTVASNLQDEELCGGLWRLVLAQRWMERLKTVAGSKMQGLLERVNTEIHFVTKCAFQPPPSCLRFVQTNISRLLQETSEQLVALKPWITRQNFARCLELQCQPDSSTLPPPWSPRPLEATAP
notes: yeast supernatant and purified protein (dimer)
B4: flt3-L quadruply substituted mutant L-3H/H8Y/K84E/Q122R (ligand)
chain: HSGTQDCSFQYSPISSDFAVKIRELSDYLLQDYPVTVASNLQDEELCGGLWRLVLAQRWMERLKTVAGSKMQGLLERVNTEIHFVTECAFQPPPSCLRFVQTNISRLLQETSEQLVALKPWITRRNFARCLELQCQPDSSTLPPPWSPRPLEATAP
notes: Constructed by PCR mutagenesis from K84E/Q122R, expressed in yeast and purified
B5: flt3-L mutant S13F (ligand)
chain: LSGTQDCSFQHSPISFDFAVKIRELSDYLLQDYPVTVASNLQDEELCGGLWRLVLAQRWMERLKTVAGSKMQGLLERVNTEIHFVTKCAFQPPPSCLRFVQTNISRLLQETSEQLVALKPWITRQNFARCLELQCQPDSSTLPPPWSPRPLEATAPTAPQPPLLLLLLLPVGLLLLAAAWCLHWQRTRRRTPRPGEQVPPVPSPQDLLLVEH
B6: recombinant CHO-derived human flt3-L, which has native human sequence (ligand)
chain: TQDCSFQHSPISSDFAVKIRELSDYLLQDYPVTVASNLQDEELCGGLWRLVLAQRWMERLKTVAGSKMQGLLERVNTEIHFVTKCAFQPPPSCLRFVQTNISRLLQETSEQLVALKPWITRQNFSRCLELQCQPDSSTLPPPWSPRPLEATAPTAPQP

Experiments:
[1] = target: T1, human flt3 on BAF/hflt3 cells (BAF-BO3 …); experiment: cell-based or functional assay
[2] = target: T1, human flt3 on BAF/hflt3 cells (BAF-BO3 …); experiment: inhibition of 125I-flt3-L binding to BAF/hflt3 cells, purified protein
Experimental: Binding assays were performed using a phthalate oil separation method as described previously for murine ¹²⁵I-GM-CSF (Park et al., J. Biol. Chem. 261:4177-4183 (1986)). Briefly, BAF-BO3 cells transfected with human flt3 cDNA (0.5-1×10⁶) were incubated with serial dilutions of ¹²⁵I-flt3-L in binding medium (RPMI 1640, 2.5% bovine serum albumin, 0.2% NaN3, 20 mM Hepes, pH 7.2) in 96 well microtiter plates maintained on a mini-orbital shaker (Bellco) at 37° C. for 90 minutes. Inhibition binding assays were carried out by holding the radiolabeled flt3-L concentration constant at 0.3 nM, while the concentration of unlabeled competitor proteins ranged from 150 nM to 0.001 nM. The ratio of Kdi of mutant to wild type flt3-L, determined in at least duplicate, in a given assay was averaged over at least three independent assays and the standard error of the mean (SEM) reported. […] For this assay, cells expressing human flt3 (BAF/hflt3 cells) were constructed from BAF/B03 cells, using a procedure previously described for producing BAF/B03 cells expressing the murine flt3 (Lyman et al., Cell 75:1157-1167 (1993)). Expression of human flt3 by BAF/hflt3 cells was confirmed by examining the capacity of the cells to proliferate in response to soluble flt3-L, and by flow cytometric analysis using biotinylated flt3-L.
^aThe specific activity of purified mutant or wild type protein was determined by taking the ratio of proliferation activity in BAF/hflt3 cells (units/ml) to concentration of flt3-L protein as determined by amino acid composition (ng/ml). The ratio of specific activity of mutant to wild type flt3-L is averaged over three independent assays, and the standard error of the mean (SEM) is reported. ^bThe Kdifor wild type protein is 61 ± 19 pM (n = 2). The ratio of Kₐᵢ of mutant to wild type flt3-L is averaged over two independent assays and the standard deviation is reported.

[3] = target: T1, human flt3 on BAF/hflt3 cells (BAF-BO3 …); experiment: Kdi: inhibition of 125I-flt3-L binding to BAF/hflt3 cells, the assays of Table 3
[4] = target: T1, human flt3 on BAF/hflt3 cells (BAF-BO3 …); experiment: Kdi: inhibition by unlabelled flt3-L of 0.3 nM 125I-flt3-L binding to BAF-BO3 cells transfected with human flt3 (n=7)
Experimental: (§1) Binding assays were performed using a phthalate oil separation method as described previously for murine ¹²⁵I-GM-CSF (Park et al., J. Biol. Chem. 261:4177-4183 (1986)). Briefly, BAF-BO3 cells transfected with human flt3 cDNA (0.5-1×10⁶) were incubated with serial dilutions of ¹²⁵I-flt3-L in binding medium (RPMI 1640, 2.5% bovine serum albumin, 0.2% NaN3, 20 mM Hepes, pH 7.2) in 96 well microtiter plates maintained on a mini-orbital shaker (Bellco) at 37° C. for 90 minutes. Inhibition binding assays were carried out by holding the radiolabeled flt3-L concentration constant at 0.3 nM, while the concentration of unlabeled competitor proteins ranged from 150 nM to 0.001 nM. The ratio of Kdi of mutant to wild type flt3-L, determined in at least duplicate, in a given assay was averaged over at least three independent assays and the standard error of the mean (SEM) reported. […]
(§2) The ordinate is the Log¹⁰ of the value relative to wild type flt3-L, and the abscissa is the flt3-L mutant designation. […] The ratio of Kₐᵢ mutant to wild type flt3-L, determined in at least duplicate, in a given assay is averaged over at least three independent assays and the standard error of the mean (SEM) is reported.

[5] = target: T1, human flt3 on BAF/hflt3 cells (BAF-BO3 …); experiment: direct binding of serial dilutions of 125I-flt3-L to BAF-BO3 cells transfected with human flt3, 37 C, phthalate oil separation (n=7)
Experimental: as §1, §2

[6] = target: T2, flt3 on murine WWF7 cells; experiment: cell-based or functional assay
[7] = target: T1, human flt3 on BAF/hflt3 cells (BAF-BO3 …); experiment: Kdi: inhibition of binding of radiolabelled yeast-derived flt3-L to BAF-BO3 cells transfected with human flt3
Experimental: as §1
Specific activity of purified mutant or wild type protein was calculated as the ratio of proliferation activity in BAF/hflt3 cells (units/ml) to concentration of flt3-L protein as determined by amino acid composition (ng/ml). The ratio of specific activity of mutant to wild type flt3-L, determined in duplicate, in a given assay was averaged over at least three independent assays and the standard error of the mean (SEM) is reported. […]

| Binder | Sp.Ac. MUT / Sp.Ac. Wt (BAF/hflt3 cell proliferation units/ml per ng/ml purified protein) [1] | Kai MUT / Kai Wt [2] | other results |
| --- | --- | --- | --- |
| B1 | 1 ratio to wild type | 1 ratio to wild type | Ki [3]: 0.061 nM; Ki [4]: 0.09 nM; Kd [5]: 0.13 nM |
| B2 | 2.9 ratio to wild type | 3.4 ratio to wild type | – |
| B3 | 2.1 ratio to wild type | 2.8 ratio to wild type | – |
| B4 | 3 ratio to wild type | 8.6 ratio to wild type | – |
| B5 | – | – | Sp.Ac. MUT / Sp.Ac. WT (WWF7 cell proliferation units/ml per flt3-L ng/ml by ELISA, yeast supernatant) [6]: 0 ratio to wild type |
| B6 | – | – | Ki [7]: 0.08 nM |
